Experimental data reported in PMC4446434, “A prophage-encoded actin-like protein required for efficient viral DNA replication in bacteria” (Nucleic Acids Research, 2015).

How the values were obtained:
[1] = target: His10-AlpC (Cg1890), actin-like protein of the prophage CGP3 of Corynebacterium glutamicum ATCC 13032 (Corynebacterium glutamicum ATCC 13032 (prophage CGP3)); test: co-sedimentation; AlpC and AlpA (or control protein) equimolar, 5 uM each, 20 ul, EMSA buffer (20 mM Tris/HCl pH 7.5, 50 mM KCl, 10 mM MgCl2, 5% glycerol, 0.5 mM EDTA, 0.005% Triton X-100), 30°C 30 min, with or without 1 mM ATP and/or 100 ng DNA (500 bp upstream of alpA); 16 100 x g 1 h; SDS-PAGE, Coomassie, ImageQuant TL
purified protein [2] = substrate: Nc1ncnc2c1ncn2[C@@H]1O[C@H](COP(=O)(O)OP(=O)(O)OP(=O)(O)O)[C@@H](O)[C@H]1O; test: purified protein; assay type: biochemical, Corynebacterium glutamicum; settings: 1 uM protein, equimolar MgSO4, 50 mM Tris/HCl pH 7.5, 150 mM NaCl, 10% glycerol, 30 °C
purified protein [3] = substrate: Nc1nc2c(ncn2[C@@H]2O[C@H](COP(=O)(O)OP(=O)(O)OP(=O)(O)O)[C@@H](O)[C@H]2O)c(=O)[nH]1; test: purified protein; assay type: biochemical, Corynebacterium glutamicum; settings: 1 uM protein, equimolar MgSO4, 50 mM Tris/HCl pH 7.5, 150 mM NaCl, 10% glycerol, 30 °C

| Molecule | percent of AlpA co-sedimented with AlpC (with ATP and DNA) [1] | percent of AlpA co-sedimented with AlpC (with ATP) [1] | Km (purified protein [2]) | Km (purified protein [3]) |
| --- | --- | --- | --- | --- |
| His10-AlpA (Cg1891), adaptor protein of the prophage CGP3 of Corynebacterium glutamicum (natural protein) | 38% | 30% |  |  |
| AlpC (Corynebacterium glutamicum ATCC 13032) (protein, N-terminal His10 tag kept (His10-AlpC), expressed in E. coli BL21 (DE3) pLysS, HisTrap and Superdex 200 purified; encoded by cryptic prophage CGP3; polymerizes with nucleotide and Mg2+) MTSAVNVQKKTTQKVLKPINTKNYSATDAVQTGQHGSALGSNIGVYTYTAGLDIGNGYVKGIIEATGDTTGTSVDVIDMPSAATRMSRPTEVPEPDDTAVAVTGADFFNHIDTNFNSPMVKGNYRYLCGTRSLSARGSLEEFDLVGNRSKAEQELSKVLVMAVLAAKAVKDFVAAHGRIPQVAVEGDPGVLRVHTYLALALPINEYVGHRHGYKAQFMGDGAANPAVHVVTVNNFETPATVQLIFERVEVIAEGASAQYAITAGGEVLMNGMLADVRSKGLALEGVTAGDVLQARHTIGVDVGEGTVNFPVFTDGRFNHDASRAYDKGYGTVLESAIQAMDDAGLAHNFNSRKQLADYLQRPPSALKRNFYTRVEQHVDQEAVFFVQDVAAEFARVLSDVGALTEVAFVYGGGSGPLRDRLHEALLIKAAEMGSEDTFPVLYLDSAYSRKLNREGLMIAARSIAAKARK |  |  | 200 µM | 430 µM |
